Data reported in the nanobody polyreactivity screen of Harvey et al. (2022).

Assay: yeast display, Sf9 membrane polyspecificity reagent, FACS + sequencing; frameworks hold sequencing errors
How it was run: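 Sorting gates, low and high (top ~1%), were placed on anti-HA fluorescence to track expression and on streptavidin fluorescence to track reagent binding. A clone's polyreactivity label is taken from the gate it came out of. The reagent was 10% biotinylated, detergent-solubilized Sf9 membrane, applied for 1 hour at 4 °C to galactose-induced yeast display cells.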

QVQLVESGGGLVQAGGSLRLTCAASGYAMGWYRQAPGKERELVAAISWSGDITYADSVKGRFTISRDNAKNTVYLQMNRLKPEDTAVYSCNADRYTGRDGEQSLDYWGQGTQVTVSS
polyreactivity (PSR sort gate): low polyreactivity

QVQLVESGGGLVQAGGSLRLTCAASGYTFNYYAKGWYRQAPGKERELVAAIDWSDGTTYYADSVKGRFTISPDYAKNTVYLQMNSLKPEDTAVYYCAASLSQSEYDYWGQGTLVTVSS
polyreactivity (PSR sort gate): low polyreactivity

QVQLVESGGGLVQAGGSLRLTCAASRIIFRKYAMGWYRQAPGKERELVAAISSSAGSTYYADSVKGRFTISRDNAKNTVYLQMNSLKPEDTAVYYCAADRHYTRYDYWGQGTQVTVSS
polyreactivity (PSR sort gate): high polyreactivity

QVQLVESGGGLVQAGGSLRLTCAATGRTFYNGMGWYRQAPGKERELVAAISRGGSTYYADSVKGRFTISRDNAKNTFYLQMTSLKPEDTAVYYCAIDQSRYVYVTLRGGYWGLGTQVTVSS
polyreactivity (PSR sort gate): low polyreactivity

QVQLVESGGGLVQAGGSLRLTCADSGIIYTYNAMRWYRQAPGKEMEFVATITWSGGSTYYADSVKGRFTISRDNAMNTVYFQMNSLKPEDTAVYYCAVDYSRHGYWSPVYEFNYWGQGTQVTVSS
polyreactivity (PSR sort gate): low polyreactivity

QVQLVESGGGLVQAGGSLRLTCAPSVRIFTIYDMGRYRQAPGKERELVATITYSSGSTSYADSVKGRFTISRDNAKNTVYLLMNSLKPEDTAVYYCAKKYYSGYGYWGQGTQVTVSS
polyreactivity (PSR sort gate): low polyreactivity

QVQLVESGGGLVQAGGSLRLTCDASGYIFSKYAMGWYRQAPGKERELVAAISGSGGSTSYADSVKGRFTISRDNAKNTVYLQMYCLKPEDTAVYYCIARSRLQRGRMDYWGQGTQVTVSS
polyreactivity (PSR sort gate): high polyreactivity

QVQLVESGGGLVQAGGSLRLTSAASGYIFEEYDMGCYRQAPGKERELVAAIRFSSASTTYADSVKGRFTISRDNAKNTVYLQMNSLKPEDTAVYYCAVKAGDVYSDYDYWGQGTQVTVSS
polyreactivity (PSR sort gate): low polyreactivity

QVQLVESGGGLVQAGGSLRSSCAATGRTFYYNGMGWYRQAPGKERELVATITNGGSTNYADSVKGRFTISRDNAKNTVYLQMNSLKPEDTAVSYCAKTLASDCYDYWGQGTQVTVSS
polyreactivity (PSR sort gate): low polyreactivity

QVQLVESGGGLVQAGGSLRVICAASGIIFPIYAMGWYRQAPGKEWELVAGISTGGGGTYYADSVKGRFTISRDNAKNTVYLQKNSLKPEDTAVYYCNVDAAGSNSHARHDSWGQGTQVTVSS
polyreactivity (PSR sort gate): low polyreactivity

QVQLVESGGGLVQAGGSLRVICAASGLIFYGYMGWSRQAPGKERELVAAISYTGGSTYYADSVKGRFTISRDNAKNTVYVQMNSLKPEDTAVYYCARDWRTKWFGYWGQGTQVTVSS
polyreactivity (PSR sort gate): low polyreactivity

QVQLVESGGGLVQAGGSLRVICAPSGSTFGVYAMGWYRQAPGKERDLVAAISDTGGSTYYADSVKGRFTISRDNAKTTVYLQMNSLKPEDTAVYYCAVEVGYTDSPYSYDYWGHGTQVTVSS
polyreactivity (PSR sort gate): low polyreactivity

QVQLVESGGGLVQAGGSLRVSCAASGFIFLAYAMGWYSQAPGKERELFAAIDTSGGSTYYADSVKGRFTSTRDNAKNTVYLQMNSLKPEDSAVYYCAADDYDQYYFDYDYWGQGTQVTVSS
polyreactivity (PSR sort gate): low polyreactivity

QVQLVESGGGLVQAGGSLRVSCAASGFIFRRYAMGWYRQAPGKERELVAAIRTNSGSTYYADSVKGRFTISRDNAKNTVYLQMNSLKPEDTAVYYCATGQVYRTVSWLYNYWGQGTQVTVSS
polyreactivity (PSR sort gate): high polyreactivity

QVQLVESGGGLVQAGGSLRVSCAASGGTFTAYAMGGYIQAPGNERQLVAAISASGDSTYYADSVKGRFTISRDNPKHTVYLQMNSLKPDDTAVYYCAADWAYKYELDYWGQGTQVTVSS
polyreactivity (PSR sort gate): low polyreactivity

QVQLVESGGGLVQAGGSLRVSCAASGLIFNTYAMGWYRQAPGKERELVAAITVGGGTNYADSVKGLFRISRDNAKNTVYLQMNSLNPADTAVYYCAARLASWPLTYDFQWYEYWGQGTQVTVSS
polyreactivity (PSR sort gate): low polyreactivity

QVQLVESGGGLVQAGGSLRVSCAASGLTFKINAMGWYRQEPGKERELVAAITWNGGRTYYADSVKGRFTISRDNAKNTVYLQMNSLKPEDTAVYYCAADGKYYHRRPGWPIYDYWGQGTQVTVSS
polyreactivity (PSR sort gate): high polyreactivity

QVQLVESGGGLVQAGGSLRVSCAASGLTLPPYAMGWDRQAPGKERELVAAITSGGSTNYADSVKGRFTISRDKAKNTVYLQLNSLKPEDTAVYYCAAVGRHYYVKFDFWGQGTHVTVSS
polyreactivity (PSR sort gate): low polyreactivity

QVQLVESGGGLVQAGGSLRVSCAASGNTFGGYAMGWYRQAPGKERELVAAISSSGGSTYYADSVKGRFTISRDNAKNTVYLQMNSLKPEDTAVYYCAAYGGVYGYWTMGYWGQGTQVTVSS
polyreactivity (PSR sort gate): high polyreactivity

QVQLVESGGGLVQAGGSLRVSCAASGNTFGYFAMGWYRQAPGKERELVAAMSGSGGRTYYAASVKGRFTISRDNAKNTVDLQMNILKPEATAVYYCNAVYYHVVDFDYWGQGTQVTVSS
polyreactivity (PSR sort gate): high polyreactivity

QVQLVESGGGLVQAGGSLRVSCAASGRTFGGYAMGWYRQAPGKERELVAAISDRGTSTYYADSVKGRFTISRDNAKNTVYLQMNSLKPEDTAVYYCAARINYWGYYYWGQGTQVTVSS
polyreactivity (PSR sort gate): high polyreactivity

QVQLVESGGGLVQAGGSLRVSCAASGRTIRWNAMGWSRQAPGKEREMVAAITSRGGSTYYADSVKGRFTISRDNAKNTVYLQMNSLKPEDTAVYYCAKQPKPPPVTGYDYWGQGTQVTVSS
polyreactivity (PSR sort gate): high polyreactivity

QVQLVESGGGLVQAGGSLRVSCAASGSIFRFHVMGWYRQAPGKERELVAAITRGDSTNYADSVKGRFTIPRDNAKNTVYLHMNSLKPEATAVYYCATKTPGWGIFDYWGPGTQVTVSS
polyreactivity (PSR sort gate): low polyreactivity

QVQLVESGGGLVQAGGSLRVSCAASGSTCSQYVMGWYRQAPGKERELVAAISGGYRTYYADSVKGRFTISRDNAKNTVYLQMNSLKPEDTAVYYCAAEVLKTRWSYDYWGQGTQVTVSS
polyreactivity (PSR sort gate): high polyreactivity

QVQLVESGGGLVQAGGSLRVSCAASGSTFPSNAMGWYRQAPGKERELVATITSAGGGTYYADSVKGRFTISRDNAKNSVYLQMNSLKAEDTAVYYCNADGPAGDAFDYWGPGTQVTVSS
polyreactivity (PSR sort gate): low polyreactivity

QVQLVESGGGLVQAGGSLRVSCAASGSTFRVNGMGGYRQAPGKERELLATIRGRGGTTYYADSVKGRFTISRDNAKTTVYLQMNSLKPDDTAVSYCAATNVKRTEGYTPDYDYWGHGTQVTVSS
polyreactivity (PSR sort gate): high polyreactivity

QVQLVESGGGLVQAGGSLRVSCAASGSTFWSNVMGWYRQAPGKERELDSAISYGGVTTSYADSVKGRFTISRDNAKNTVYLQMNSLKPEDTAVYYCATDYVGYYFYESDYWGQGTQVTVSS
polyreactivity (PSR sort gate): low polyreactivity

QVQLVESGGGLVQAGGSLSFSCAASGSIFDYNAMGWYRQAPGKERELVADIRGIGGSTYYADSVKGRFTISRDNAKNTFYLQMNSLIPEDTAVYYCNTSTLGGYYWGQGTQVTVSS
polyreactivity (PSR sort gate): low polyreactivity

QVQLVESGGGLVQAGGSLSLICAASGRNFYTYAMGWYRQAPGKERELVAAISWSGGSTYYADSVKGRFTISRDNAKNTVYLQMNSLNPEDTAVYYCNARFRFGWPGYDYWGQGTQVTVSS
polyreactivity (PSR sort gate): high polyreactivity

QVQLVESGGGLVQAGGSLSLICADTGLTFRVYAMGWYRQAPGKERELVAAISSRGGSTYYADSVKGRFTISRDNAKYTVLLQMNSLKPEDTAVYDCYARGQGGYWGQGTQVTVSS
polyreactivity (PSR sort gate): high polyreactivity

QVQLVESGGGLVQAGGSLSLSCAASGFIFGWYAMGWFRQAPGKERELVAAIYASGTRTYYADSVKGRFTISRDNAKNTVYLQMNSLKPEDTAVYYCNVYTKFVYAYDYWGQGTQVTVSS
polyreactivity (PSR sort gate): high polyreactivity

QVQLVESGGGLVQAGGSLSLSCAASGFNSSHYAMGWYRQAPGKERELVATISSGGSTYADSVKGRFTISRDNAKNTVYLQMNSLKPEDTAVYYCDKGVRYKQYHIMYYWGQGTQVTVSS
polyreactivity (PSR sort gate): high polyreactivity
